Assay results from publication doi:10.1101/2020.10.21.349357 (bioRxiv, 2020).

How the values were obtained:
linear tetra-ubiquitin = linear tetra-ubiquitin (UniProt P0CG48 1-76; P0CG48 1-76; P0CG48 1-76; P0CG48 1-76); assay: co-IP
linear hepta-ubiquitin = linear hepta-ubiquitin (UniProt P0CG48 1-76; P0CG48 1-76; P0CG48 1-76; P0CG48 1-76; P0CG48 1-76; P0CG48 1-76; …); assay: co-IP
linear hepta-ubiquitin, sequence (P0CG48 1-532, one chain of several): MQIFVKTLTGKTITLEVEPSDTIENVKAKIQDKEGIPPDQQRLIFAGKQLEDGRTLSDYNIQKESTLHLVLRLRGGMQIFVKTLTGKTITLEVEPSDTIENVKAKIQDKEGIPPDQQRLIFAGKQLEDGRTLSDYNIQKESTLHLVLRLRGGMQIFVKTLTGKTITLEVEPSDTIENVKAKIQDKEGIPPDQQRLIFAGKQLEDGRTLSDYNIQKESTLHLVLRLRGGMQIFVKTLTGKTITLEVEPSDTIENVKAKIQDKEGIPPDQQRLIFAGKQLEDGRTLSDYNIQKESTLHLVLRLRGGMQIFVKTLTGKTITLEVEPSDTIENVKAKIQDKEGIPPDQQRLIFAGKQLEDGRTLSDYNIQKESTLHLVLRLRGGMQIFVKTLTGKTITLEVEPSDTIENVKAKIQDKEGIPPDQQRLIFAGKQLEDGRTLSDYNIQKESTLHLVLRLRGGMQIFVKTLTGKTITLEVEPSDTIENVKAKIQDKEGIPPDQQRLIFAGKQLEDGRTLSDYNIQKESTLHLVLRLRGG

linear tetra-ubiquitin, sequence (P0CG48 1-304, one chain of several): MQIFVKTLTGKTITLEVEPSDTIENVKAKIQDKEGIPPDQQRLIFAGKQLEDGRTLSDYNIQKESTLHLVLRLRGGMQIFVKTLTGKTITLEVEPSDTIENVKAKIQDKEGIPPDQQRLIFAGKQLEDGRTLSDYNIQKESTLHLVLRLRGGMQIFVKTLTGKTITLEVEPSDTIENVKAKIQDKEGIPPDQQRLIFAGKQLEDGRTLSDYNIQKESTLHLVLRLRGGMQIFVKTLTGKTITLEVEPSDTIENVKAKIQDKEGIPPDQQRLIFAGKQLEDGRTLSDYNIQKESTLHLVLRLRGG

B1: HA-tagged N4BP1 (full length) (natural protein, human, UniProt O75113 1-896, looked up)
chain: MAARAVLDEFTAPAEKAELLEQSRGRIEGLFGVSLAVLGALGAEEPLPARIWLQLCGAQEAVHSAKEYIKGICEPELEERECYPKDMHCIFVGAESLFLKSLIQDTCADLCILDIGLLGIRGSAEAVVMARSHIQQFVKLFENKENLPSSQKESEVKREFKQFVEAHADNYTMDLLILPTSLKKELLTLTQGEENLFETGDDEVIEMRDSQQTEFTQNAATGLNISRDETVLQEEARNKAGTPVSELTKQMDTVLSSSPDVLFDPINGLTPDEEALSNERICQKRRFSDSEERHTKKQFSLENVQEGEILHDAKTLAGNVIADLSDSSADSENLSPDIKETTEEMEYNILVNFFKTMGYSQEIVEKVIKVYGPSTEPLLLLEEIEKENKRFQEDREFSAGTVYPETNKTKNKGVYSSTNELTTDSTPKKTQAHTQQNMVEKFSQLPFKVEAKPCTSNCRINTFRTVPIEQKHEVWGSNQNYICNTDPETDGLSPSVASPSPKEVNFVSRGASSHQPRVPLFPENGLHQQPEPLLPNNMKSACEKRLGCCSSPHSKPNCSTLSPPMPLPQLLPSVTDARSAGPSDHIDSSVTGVQRFRDTLKIPYKLELKNEPGRTDLKHIVIDGSNVAITHGLKKFFSCRGIAIAVEYFWKLGNRNITVFVPQWRTRRDPNVTEQHFLTQLQELGILSLTPARMVFGERIASHDDRFLLHLADKTGGIIVTNDNFREFVNESVSWREIITKRLLQYTFVGDIFMVPDDPLGRSGPRLEEFLQKEVCLRDMQPLLSALPNVGMFDPSFRVPGTQAASTSHQPPTRIQGAPSSHWLPQQPHFPLLPALPSLQQNLPMPAQRSSAETNELREALLKIFPDSEQRLKIDQILVAHPYMKDLNALSAMVLD
binding result (linear tetra-ubiquitin): binds
binding result (linear hepta-ubiquitin): binds
